Measurements published in patent US20250171550A1 (NINGBO T MAXIMUM BIOPHARMACEUTICALS, published 2025).
Positions count from the first letter of the chain named. In names and notes the source's numbering stands. Each block holds one binder with its values, some of them ahead of it.

Key:
Biotin-BCMA-Fc = target: T1, Biotin-BCMA-Fc (human, UniProt Q02223 1-54, labelled with NHS-biotin, sites not stated); experiment: flow cytometry of the induced yeast single clone displaying the VHH, Biotin-BCMA-Fc and PE-streptavidin
T1 construct: also called Biotin-BCMA-Fc protein; labeled BCMA-Fc recombinant protein; not shown: Fc part
T1 sequence (looked up): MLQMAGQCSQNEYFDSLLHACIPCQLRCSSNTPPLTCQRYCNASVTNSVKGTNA
Experimental: After two rounds of magnetic sorting were repeated, a part of the yeast was cultured and subjected to induced expression and flow cytometry assays. Another part was directly applied onto a PAD plate, and single clones were then picked and cultured, and were incubated simultaneously with Biotin-Fc and Biotin-BCMA-Fc 24 h after induced expression, with PE-Streptavidin as a secondary antibody; after incubation, flow cytometry assays were performed, and the results are shown in FIG. 3, where 14 clones are shown to bind to Biotin-BCMA-Fc.

[1] = target: T2, BCMA-Fc recombinant protein (human, UniProt Q02223 1-54); experiment: SPR, Biacore 8K, CM5 chip; antibody captured by anti-human IgG (Fc), human BCMA protein as analyte (paragraph 147 describes the reverse format)
T2 construct: also called human BCMA protein; BCMA protein; not shown: Fc part
T2 sequence (looked up): T1 sequence (looked up)
Experimental: The mouse anti-human IgG (Fc) antibody was diluted with the immobilization reagent (sodium acetate, pH 5.0): 950 μL of the immobilization reagent was added to 50 μL of the mouse anti-human IgG (Fc) antibody. The dilution was used for immobilization in eight channels. First, the surface of the CM5 chip was activated for 360 s with EDC and NHS at a flow rate of 10 μL/min. Then, the mouse anti-human IgG (Fc) antibody was injected into the channels (channels 1-8, Fc1,2) at a flow rate of 10 μL/min for about 360 s, with the level of immobilization at about 7000 to 14,000 RU. Finally, the chip was blocked with ethanolamine at 10 μL/min for 420 s.
Human BCMA protein was diluted 2-fold with the running reagent. The diluted human BCMA protein was injected into the experimental channels and the reference channels in sequence at a flow rate of 30 μL/min, and corresponding periods of association and dissociation were allowed. The association and dissociation steps were all performed in the running reagent. After each concentration analysis, the chip needed to be regenerated with magnesium chloride at a flow rate of 20 μL/min for 30 s to wash away the ligand and undissociated analyte. For the next concentration analysis, the experimental channels needed to recapture the same amount of ligand.
A KD value was calculated for each sample using Biacore 8K analysis software Biacore Insight Evaluation Software. The reference channels (Fc1) were used for background subtraction.

B1: C2 (Fc fusion)
VHH-Fc fusion chain: QVQLVESGGGLVQAGGSLRLSCVASGLTFSNYAMGWFRQGPGKDRDFVAAITRSDERQNDGVTYYRVSVKGRFTISRDNANDTVYLQMNSLKPEDTAIYYCAADPSLVFSPTLRYWGQGTLVTVSS
notes: also called single-domain antibody C2
percent of cells in gate R3 (Biotin-BCMA-Fc): 95.3%

B4: humanized single-domain antibody huD1 (Fc fusion)
chain: QVQLVESGGGLVQPGGSLRLSCAASGRTSTTSVMGWFRQAPGKERRFVAAITRTDDRQNDGITYYADSVKGRFTISRDNSKNTLYLQMNSLRAEDTAVYYCAAHTSLVFTPDPRYWGQGTLVTVSS
notes: Humanized on DP-47 frameworks, original FR2 kept; not shown: fusion partner
Kd [1]: 1.9 nM
koff [1]: 0.0141 s⁻¹
kon [1]: 7.41e+06 M⁻¹ s⁻¹

B5: humanized single-domain antibody huD1FGLF (Fc fusion)
chain: B4 chain with E44G, R45L, R46E
notes: FR1, FR3 and FR4 replaced and FR2 mutated; Fusion partner inferred; also called huDIFGLF; not shown: fusion partner
Kd [1]: 9.25 nM
koff [1]: 0.0579 s⁻¹
kon [1]: 6.26e+06 M⁻¹ s⁻¹

B7: humanized single-domain antibody hu4811 (Fc fusion)
chain: QVQLVESGGGLVQPGGSLRLSCAASGHTPSNYAMGWFRQTPGKEREFVAAITWSAVTRDDAIPYYADSVKGRFTISRDNSKNTLYLQMNSLRAEDTAVYYCAVDASLVMTPTPRYWGQGTLVTVSS
notes: Humanized on DP-47 frameworks, original FR2 kept; Fusion partner inferred; not shown: fusion partner
Kd [1]: 9.71 nM
koff [1]: 0.0698 s⁻¹
kon [1]: 7.19e+06 M⁻¹ s⁻¹

B8: humanized single-domain antibody hu4811FGLF (Fc fusion)
chain: B7 chain with T40A, E44G, R45L
notes: FR1, FR3 and FR4 replaced and T45A, E49G, R50L in FR2; Fusion partner inferred; not shown: fusion partner
Kd [1]: 10.2 nM
koff [1]: 0.126 s⁻¹
kon [1]: 1.24e+07 M⁻¹ s⁻¹

The remaining lines, values ahead:

percent of cells in gate R3 (Biotin-BCMA-Fc): 99.8%
B2: D10 (Fc fusion)
VHH-Fc fusion chain: B1 VHH-Fc fusion chain with A14P, V23A, L27F, T28S, F29L, S30N, A33V, M34I, G40A, L113P
notes: also called single-domain antibody D10

percent of cells in gate R3 (Biotin-BCMA-Fc): 93.3%
B3: C6 (Fc fusion)
VHH-Fc fusion chain: QVQLVESGGGLVETGSSLRLSCKSSGHSFSDYSLAWFRQAPGKEREFVAAITWSDVPRDDAVTYYRVDVKGRFTISRDNAKNTVYLQMNSLKPEDTAVYYCAVDASLVMTLTPRYWGQGTQVTVSS
notes: also called single-domain antibody C6

Kd [1]: 0.243 nM
koff [1]: 0.00212 s⁻¹
kon [1]: 8.73e+06 M⁻¹ s⁻¹
binding result (Biotin-BCMA-Fc): binds
B6: single-domain antibody D1 (Fc fusion)
chain: B4 chain with P14A, A23V, A66G, D67E, S80D, L84V, R92K, A93P, L121P, S125P
notes: not shown: human IgG1 Fc, ligated in series to the VHH (vector Lenti-hIgG1-Fc2)

Kd [1]: 0.0379 nM
koff [1]: 0.0013 s⁻¹
kon [1]: 3.42e+07 M⁻¹ s⁻¹
percent of cells in gate R3 (Biotin-BCMA-Fc): 98.4%
B9: single-domain antibody 48-11 (Fc fusion)
chain: B7 chain with P14A, A66R, D67T, S80A, L84V, R92K, A93P, L121Q
notes: Supernatant was used in flow cytometry, Protein A purified material in Biacore; not shown: human IgG1 Fc, ligated in series to the VHH (vector Lenti-hIgG1-Fc2)
